± gives the standard deviation of the averaged measurements.
Assay: total protein half-life in vivo (active degradation + dilution); higher = more stable protein
[1] = E. coli NCM3722 delta-clpP delta-lon delta-hslV, growth: N-lim chemostat, doubling time 6 h
[2] = E. coli NCM3722 delta-clpP, growth: N-lim chemostat, doubling time 6 h
[3] = E. coli NCM3722 delta-lon, growth: N-lim chemostat, doubling time 6 h
[4] = E. coli NCM3722 delta-smpB, growth: N-lim chemostat, doubling time 6 h
[5] = wild type E. coli NCM3722, growth: C-lim chemostat, doubling time 3 h
[6] = wild type E. coli NCM3722, growth: C-lim chemostat, doubling time 6 h
[7] = wild type E. coli NCM3722, growth: C-lim chemostat, doubling time 12 h
[8] = wild type E. coli NCM3722, growth: N-lim chemostat, doubling time 6 h
[9] = wild type E. coli NCM3722, growth: N-lim chemostat, doubling time 12 h
[10] = wild type E. coli NCM3722, growth: P-lim chemostat, doubling time 6 h
[11] = wild type E. coli NCM3722, growth: P-lim chemostat, doubling time 12 h
[12] = E. coli NCM3722 delta-hslV, growth: N-lim chemostat, doubling time 6 h

| Sequence | total protein half-life in vivo [1] [h] | total protein half-life in vivo [2] [h] | total protein half-life in vivo [3] [h] | total protein half-life in vivo [4] [h] | total protein half-life in vivo [5] [h] | total protein half-life in vivo [6] [h] | total protein half-life in vivo [7] [h] | total protein half-life in vivo [8] [h] | total protein half-life in vivo [9] [h] | total protein half-life in vivo [10] [h] | total protein half-life in vivo [11] [h] | total protein half-life in vivo [12] [h] |
| --- | --- | --- | --- | --- | --- | --- | --- | --- | --- | --- | --- | --- |
| MKMIEVVAAIIERDGKILLAQRPAQSDQAGLWEFAGGKVEPDESQRQALVRELREELGIEATVGEYVASHQREVSGRIIHLHAWHVPDFHGTLQAHEHQALVWCSPEEALQYPLAPADIPLLEAFMALRAARPAD | 4.73 | 4.63 | 5.61 | 4.07 | 3.25 | 4.61 ± 0.59 | 8.63 | 3.82 | 6.31 ± 0.54 | 4.59 | 8.52 ± 0.99 | – |
| MIVLPRRLSDEVADRVRALIDEKNLEAGMKLPAERQLAMQLGVSRNSLREALAKLVSEGVLLSRRGGGTFIRWRHDTWSEQNIVQPLKTLMADDPDYSFDILEARYAIEASTAWHAAMRATPGDKEKIQLCFEATLSEDPDIASQADVRFHLAIAEASHNIVLLQTMRGFFDVLQSSVKHSRQRMYLVPPVFSQLTEQHQAVIDAIFAGDADGARKAMMAHLSFVHTTMKRFDEDQARHARITRLPGEHNEHSREKNA [P0ACL7] | 5.57 | 2.72 | – | 2.04 | 1.28 | 2.86 ± 0.55 | 2.72 | – | 2.87 | – | – | – |
| MNMKTIEDVFIHLLSDTYSAEKQLTRALAKLARATSNEKLSQAFHAHLEETHGQIERIDQVVESESNLKIKRMKCVAMEGLIEEANEVIESTEKNEVRDAALIAAAQKVEHYEIASYGTLATLAEQLGYRKAAKLLKETLEEEKATDIKLTDLAINNVNKKAENKA | 5.25 ± 0.25 | – | 6.51 ± 0.95 | 4.94 ± 0.081 | 3.02 ± 0.13 | 5.04 ± 0.77 | 10.5 ± 1.4 | 4.881 ± 0.03 | 7.99 ± 0.53 | 5.294 ± 0.042 | 10.3 ± 0.62 | 5.18 ± 0.69 |
| MDLLYRVKTLWAALRGNHYTWPAIDITLPGNRHFHLIGSIHMGSHDMAPLPTRLLKKLKNADALIVEADVSTSDTPFANLPACEALEERISEEQLQNLQHISQEMGISPSLFSTQPLWQIAMVLQATQAQKLGLRAEYGIDYQLLQAAKQQHKPVIELEGAENQIAMLLQLPDKGLALLDDTLTHWHTNARLLQQMMSWWLNAPPQNNDITLPNTFSQSLYDVLMHQRNLAWRDKLRAMPPGRYVVAVGALHLYGEGNLPQMLR | 5.23 | 5.02 | 5.61 | 5.46 ± 0.086 | 2.97 ± 0.043 | – | 11.5 | 5.74 ± 0.45 | 12.5 | 5.75 ± 0.62 | 10.6 ± 0.083 | 5.67 |
| MLSPLLKRYTWNSAWLYYARIFIALCGTTAFPWWLGDVKLTIPLTLGMVAAALTDLDDRLAGRLRNLIITLFCFFIASASVELLFPWPWLFAIGLTLSTSGFILLGGLGQRYATIAFGALLIAIYTMLGTSLYEHWYQQPMYLLAGAVWYNVLTLIGHLLFPVRPLQDNLARCYEQLARYLELKSRMFDPDIEDQSQAPLYDLALANGLLMATLNQTKLSLLTRLRGDRGQRGTRRTLHYYFVAQDIHERASSSHIQYQTLREHFRHSDVLFRFQRLMSMQGQACQQLSRCILLRQPYQHDPHFERAFTHIDAALERMRDNGAPADLLKTLGFLLNNLRAIDAQLATIESEQAQALPHNNDENELADDSPHGLSDIWLRLSRHFTPESALFRHAVRMSLVLCFGYAIIQITGMHHGYWILLTSLFVCQPNYNATRHRLKLRIIGTLVGIAIGIPVLWFVPSLEGQLVLLVITGVLFFAFRNVQYAHATMFITLLVLLCFNLLGEGFEVALPRVIDTLIGCAIAWAAVSYIWPDWQFRNLPRMLERATEANCRYLDAILEQYHQGRDNRLAYRIARRDAHNRDAELASVVSNMSSEPNVTPQIREAAFRLLCLNHTFTSYISALGAHREQLTNPEILAFLDDAVCYVDDALHHQPADEERVNEALASLKQRMQQLEPRADSKEPLVVQQVGLLIALLPEIGRLQRQITQVPQETPVSA | 5.89 | 5.69 | – | 5.95 ± 0.25 | 3.21 ± 0.3 | – | > 16 | 5.03 ± 1.3 | 13.4 | 6.49 ± 0.13 | – | – |
| MTHVCSVILIRRSFDIYHEQQKISLHNESILLLEKNLADDFAFCSPDTRRLDIDELTVCHYLQNIRQLPRNLGLHSKDRLLINQSPPMPLVTAIFDSFNESGVNSPILSNMLYLSCLSMFSHKKELIPLLFNSISTVSGKVERLISFDIAKRWYLRDIAERMYTSESLIKKKLQDENTCFSKILLASRMSMARRLLELRQIPLHTIAEKCGYSSTSYFINTFRQYYGVTPHQFAQHSPGTFS | 5.33 ± 0.16 | 1.51 | – | 0.628 | – | – | – | 0.171 | – | – | – | – |
| MVKKAIVTAMAVISLFTLMGCNNRAEVDTLSPAQAAELKPMPQSWRGVLPCADCEGIETSLFLEKDGTWVMNERYLGAREEPSSFASYGTWARTADKLVLTDSKGEKSYYRAKGDALEMLDREGNPIESQFNYTLEAAQSSLPMTPMTLRGMYFYMADAATFTDCATGKRFMVANNAELERSYLAARGHSEKPVLLSVEGHFTLEGNPDTGAPTKVLAPDTAGKFYPNQDCSSLGQ | 5.34 ± 0.088 | 5.68 ± 0.11 | 6.787 ± 0.0084 | 5.976 ± 0.058 | 3.13 ± 0.2 | 6.4 ± 0.79 | 10.7 ± 0.25 | 6.083 ± 0.0085 | 11.5 ± 0.38 | 5.63 ± 0.41 | – | 5.99 ± 0.23 |
